Source: the supplement of paper PMC7125110
± gives the standard error. For part of these data: This sample holds only a part of the variants without activity.

B1: glmS ribozyme (parent)
chain: AUAAAAGCGCCAGAACUACAGAAAUGUAGUUGACGAGGAGGAGGUUUAUCGAAUUUUCGGCGGAUGCCUCCAAA

What was measured:
Conditions in all cases: with glucosamine-6-phosphate
glucosamine-6-phosphate [1] = variants of: B1; experiment: kcat; higher = faster cleavage; RNA array
How it was run: (§1)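 Using a hybridised Cy3 probe at 37 °C, barcoded ribozyme variants transcribed in situ by E. coli RNA polymerase on sequenced MiSeq chips were monitored across tiles imaged over ~14 h. The flow contained glucosamine-6-phosphate from 40 μM to 10 mM in HEPES/KCl/Mg(OAc)2 buffer. Signals were normalised to baseline and to non-cleaving reference variants before per-tile medians were fit to one- or two-exponential decays to yield kobs. Weighted Michaelis–Menten fits across concentrations gave kcat and KM.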

glucosamine-6-phosphate [2] = variants of: B1; experiment: self-cleavage kobs at 40 uM GlcN6P; higher = faster cleavage; RNA array
How it was run: as §1

glucosamine-6-phosphate [3] = variants of: B1; experiment: self-cleavage kobs at 2500 uM GlcN6P; higher = faster cleavage; RNA array
How it was run: as §1

glucosamine-6-phosphate [4] = variants of: B1; experiment: self-cleavage kobs at 10000 uM GlcN6P; higher = faster cleavage; RNA array
How it was run: as §1

glucosamine-6-phosphate [5] = variants of: B1; experiment: KM; higher = weaker cofactor use; RNA array
How it was run: as §1

glucosamine-6-phosphate [6] = variants of: B1; experiment: self-cleavage kobs at 160 uM GlcN6P; higher = faster cleavage; RNA array
How it was run: as §1

glucosamine-6-phosphate [7] = variants of: B1; experiment: self-cleavage kobs at 640 uM GlcN6P; higher = faster cleavage; RNA array
How it was run: as §1

## AUAAAAGCGCCAAAACUACAGAAAUGUAGUUGACGAGGAGGAGGUUUAUCGAAUGUUCGGCGGAUGCCUCGAAA
glucosamine-6-phosphate [1]
  kcat: 4.93e-05 ± 1.6e-05 s⁻¹
glucosamine-6-phosphate [2]
  self-cleavage kobs at 40 uM GlcN6P: < 1e-05 s⁻¹
glucosamine-6-phosphate [3]
  self-cleavage kobs at 2500 uM GlcN6P: 7.49e-05 ± 2.8e-05 s⁻¹
glucosamine-6-phosphate [4]
  self-cleavage kobs at 10000 uM GlcN6P: 4.08e-05 ± 1.6e-05 s⁻¹

## AUAAAAGCGCCAGAAGUACAGAAAUGUAGUUGACGAGGAGGAGGUUUAUCGAAUUUUCGGCGGAUGCCUCUAAA
glucosamine-6-phosphate [1]
  kcat: 0.00252 ± 0.00053 s⁻¹
glucosamine-6-phosphate [5]
  KM: 956 ± 300 µM
glucosamine-6-phosphate [2]
  self-cleavage kobs at 40 uM GlcN6P: 0.000132 ± 1.8e-05 s⁻¹
glucosamine-6-phosphate [6]
  self-cleavage kobs at 160 uM GlcN6P: 0.000323 ± 5.6e-05 s⁻¹
glucosamine-6-phosphate [7]
  self-cleavage kobs at 640 uM GlcN6P: 0.000865 ± 0.00012 s⁻¹
glucosamine-6-phosphate [3]
  self-cleavage kobs at 2500 uM GlcN6P: 0.00228 ± 0.00066 s⁻¹
glucosamine-6-phosphate [4]
  self-cleavage kobs at 10000 uM GlcN6P: 0.00248 ± 0.00036 s⁻¹

## AUAAAAGCGCCAGAACUACAGAAAUGUAGUUGACGAGGAGGAGAUUUAUCGAAUGUUCGGCGGAUGCCUCCAAA
glucosamine-6-phosphate [1]
  kcat: 0.000367 ± 0.00015 s⁻¹
glucosamine-6-phosphate [7]
  self-cleavage kobs at 640 uM GlcN6P: 0.000141 ± 3.3e-05 s⁻¹
glucosamine-6-phosphate [3]
  self-cleavage kobs at 2500 uM GlcN6P: 0.000228 ± 4.2e-05 s⁻¹

## AUAAAAGCGGCAGAACUACAGAAAUGUAGUUGACGAGGAGGAGGUUUAUCGAAUUUUCGUCGGAUGCCUCCAAA
glucosamine-6-phosphate [1]
  kcat: 4.68e-05 ± 1.2e-05 s⁻¹
glucosamine-6-phosphate [2]
  self-cleavage kobs at 40 uM GlcN6P: < 1e-05 s⁻¹
glucosamine-6-phosphate [6]
  self-cleavage kobs at 160 uM GlcN6P: < 1e-05 s⁻¹
glucosamine-6-phosphate [4]
  self-cleavage kobs at 10000 uM GlcN6P: 2.05e-05 ± 1e-05 s⁻¹

## AUAAAAGCGCCAGAACUACAGAAAUGUAGUUGACGAGGAGGAGGUUUAUCGGAUUUUCGGCGGGUGCCUCCAAA
glucosamine-6-phosphate [1]
  kcat: 0.00183 ± 0.00049 s⁻¹
glucosamine-6-phosphate [5]
  KM: 3690 ± 1500 µM
glucosamine-6-phosphate [2]
  self-cleavage kobs at 40 uM GlcN6P: 2.83e-05 ± 7.3e-06 s⁻¹
glucosamine-6-phosphate [6]
  self-cleavage kobs at 160 uM GlcN6P: 6.03e-05 ± 9.6e-06 s⁻¹
glucosamine-6-phosphate [7]
  self-cleavage kobs at 640 uM GlcN6P: 0.00036 ± 3.9e-05 s⁻¹
glucosamine-6-phosphate [3]
  self-cleavage kobs at 2500 uM GlcN6P: 0.000616 ± 0.0001 s⁻¹
glucosamine-6-phosphate [4]
  self-cleavage kobs at 10000 uM GlcN6P: 0.00136 ± 0.00013 s⁻¹

## AUAAAAGCGCCAUAACUACAGAAAUGUAGUUGACGAGGAGGAGGUGUAUCGAAUUUUCGGCGGAUGCCUCCAAA
glucosamine-6-phosphate [1]
  kcat: 0.000174 ± 4.9e-06 s⁻¹
glucosamine-6-phosphate [5]
  KM: 1460 ± 120 µM
glucosamine-6-phosphate [7]
  self-cleavage kobs at 640 uM GlcN6P: 5.44e-05 ± 1.5e-05 s⁻¹
glucosamine-6-phosphate [3]
  self-cleavage kobs at 2500 uM GlcN6P: 0.000107 ± 2.4e-05 s⁻¹
glucosamine-6-phosphate [4]
  self-cleavage kobs at 10000 uM GlcN6P: 0.000153 ± 2.1e-05 s⁻¹

## AUAAAAGCGCCAGAACUACAGAAAUGUAGUUGACGAGGAGGAGGUUUAUCGAAUUAUCGGCGGAUGCCUACAAA
glucosamine-6-phosphate [1]
  kcat: 8.96e-05 ± 1.4e-05 s⁻¹
glucosamine-6-phosphate [2]
  self-cleavage kobs at 40 uM GlcN6P: 3.68e-05 ± 1.1e-05 s⁻¹
glucosamine-6-phosphate [6]
  self-cleavage kobs at 160 uM GlcN6P: 5.73e-05 ± 1.1e-05 s⁻¹
glucosamine-6-phosphate [7]
  self-cleavage kobs at 640 uM GlcN6P: 7.05e-05 ± 1.1e-05 s⁻¹
glucosamine-6-phosphate [3]
  self-cleavage kobs at 2500 uM GlcN6P: 0.000153 ± 2.3e-05 s⁻¹
glucosamine-6-phosphate [4]
  self-cleavage kobs at 10000 uM GlcN6P: 8.51e-05 ± 9.4e-06 s⁻¹
